The subject of experiment [1] is TLR2. Description: BP2992 activity as TLR2 ligand (data not shown). The source says:
C-terminal histidine versions of the putative lipoproteins were constructed and expressed in E. coli by IPTG induction. BP1569 and BP2992 were successfully expressed and purified by nickel affinity followed by ion-exchange chromatography. […] Therefore, the inventors adopted a strategy of carrying out all initial studies with lipoproteins in TLR4 defective cells or mice and then synthesized lipopeptide versions of the lipoproteins for more thorough immunological analysis.

For experiment [2], the system named is dendritic cells from C3H/HeJ mice. Briefly: BP2992 maturation and cytokine production by dendritic cells. The experiment is classed as cell-based. As to conditions: 24 h. As for the experimental part: Lane 1: 5 ng BP2992; lane 2: 10 ng BP2992.
Experiment [3] concerns the target T1, TLR2 (Mus musculus, UniProt Q9EPQ1+Q9QUN7).
T1 construct: Bone marrow derived dendritic cells (DCs) were prepared by culturing bone marrow cells obtained from the femur and tibia of mice; endogenous in cells; host or cells: bone marrow-derived dendritic cells from C3H/HeJ mice (A3, A25) or C57BL/6 mice (A13)
Briefly: BP2992 cytokine production by DC with anti-TLR2 antibody. The class given is cell-based, mice. As to conditions: with or without anti-TLR2 T2.5 2.5 μg/ml, 24 hours. As to the method:
After 24 hours IL-6 production was measured by ELISA. […] After 24 hours TNF-α production was measured by ELISA.

Experiment [4] deals with human peripheral blood mononuclear cells (PBMC). Description: BP2992 cytokine production from human PBMC. The settings on record: 0.01-1 μg/ml, 24 h, two donors. The experiment is classed as cell-based. As for the experimental part: PBMC from two human donors (A and B) were treated with BP2992 (0.01-1 μg/ml), After 24 h, the concentrations of TNF-α in supernatants were determined by ELISA.

Experiment [5] deals with bone marrow-derived DCs from TLR4-defective C3H/HeJ mice. Description: Cytokine production by bone marrow-derived DC stimulated with BP1569 (ELISA). The settings on record: BP1569 100 and 1000 ng/ml, 24 h. The class given is cell-based. As for the experimental part:
(§1) Lipase-treated or untreated BP1569 (100 ng/ml) was used to stimulate BMDC from C3H/HeJ mice.
(§2) Bone marrow derived dendritic cells (DCs) were prepared by culturing bone marrow cells obtained from the femur and tibia of mice in complete RPMI (cRPMI, RPMI containing 10% fetal calf serum, 100 U/ml penicillin, 100 μg/ml streptomycin, 2 mM 1-glutamine (Invitrogen), and 50 μM 2-ME (Sigma-Aldrich) supplemented with GM-CSF 40 ng/ml. Cells were re-cultured with fresh medium containing 40 ng/ml GM-CSF every 3 d for a period of 8 d. DC were seeded at 1×10^6 cells per ml 24 hr prior to stimulation. ELISA assays were performed using R&D kits according to the manufacturer's instructions. Spleen cells from C3H/HeJ mice were seeded at 2×10^6 cells per ml and stimulated with Pam3Cys4 (120nM) or BP1569 (120 nM) for the indicated times, with or without addition of T2.5-anti-TLR2 antibody or an isotype control (Hycult Biotech). For p38 activation assays, samples were lysed with RIPA buffer and SDS-PAGE was performed followed by Western blotting with anti-phospho-p38 and β-actin antibodies (Cell Signaling).
(§3) The present inventors examined the capacity of pertussis lipoprotein to activate innate immune cells in vitro using bone marrow-derived DCs from TLR4-defective C3H/HeJ mice. […] Furthermore, stimulation of DCs with BP1569 for 24 hours enhanced surface expression of MHC class II, CD80 and CD86 detectable by flow cytometry (FIG. 2C).
A general note: An ELISA detects its analyte on a solid surface through an enzyme-linked reagent.

A further experiment has as its system DC from C3H/HeJ mice. Briefly: DC maturation: surface expression of MHC class II, CD80, CD86 by flow cytometry. The class given is cell-based. As to conditions: 100 ng/ml, 24 hours vs medium only. As to the method:
as §1
Following stimulation, DC were stained with CD11c (clone N418; eBioscience), MHCII (clone M5/114.15.2 ebioscience), CD80 (clone 16-10A1 eBioscience) and CD86 (clone […] eBioscience). Samples were analyzed with a FACS DIVA and FloJo software.
as §3
A general note: Flow cytometry measures light scatter and fluorescence of single cells or particles in a stream.

In experiment [6] the target is T1, TLR2. Description: BP1569-induced TNF-α production by DC with TLR2 blocking antibody. The class given is cell-based, mice. As to conditions: BP1569 100 ng/ml, 24 h, anti-TLR2 T2.5 2.5 μg/ml. As to the method:
as §1
(§4) Blocking antibodies were used against TLR2 to determine if the proteins can activate TLR2 specifically. […] Lipase treatment was used to confirm that the immunostimulatry effects of BP1569 were due the presence of the characteristic acyl side chain of the lipoprotein. The recombinant lipoprotein was incubated with two separate lipases for 18 h prior to stimulation of DC. Lipase treatment abolished BP1569-induced IL-12p40 and IL-6 production (FIG. 2E), but had no effect on cytokine production induced by the TLR9 agonist CpG (data not shown), confirming that BP1569 contains lipid side chains capable of triggering TLR2-induced inflammatory cytokine production.

The next experiment deals with BMDC from C3H/HeJ mice. Briefly: Lipase treatment of lipoprotein before stimulation of DC. The settings on record: lipase from Aspergillus or Pseudomonas, 18 h. The experiment is classed as cell-based. As for the experimental part:
as §1, §4

The target of experiment [7] is T2, human TLR2 (Homo sapiens, UniProt O60603+Q15399).
T2 construct: expressed in transfected cells; host or cells: HEK 293T
Description: NF-κB luciferase reporter assay in HEK 293T cells stably expressing TLR2. The settings on record: 100 ng/ml, HEK 293T-TLR2, devoid of TLR4. The experiment is classed as cell-based. As for the experimental part:
(§5) Luciferase activity was quantified after 24 h. […] IL-8 production was quantified after 24 h. […] After 24 h, the concentrations of IL-6 in supernatants were determined by ELISA.
HEK 293T cells stably expressing human TLR2 were transfected with an NF-κB luciferase construct as described previously (21) and stimulated overnight with the indicated concentrations of BP1569.
(§6) Cytokine production by TLR2 requires activation of the transcription factors NF-κB and p38 MAP kinase. To determine if BP1569 activates NF-κB, HEK 293T cells stably expressing TLR2, but devoid of TLR4, were transfected with an NF-κB luciferase reporter construct. […] To assess activation of the MAP kinase pathway, spleen cells from C3H/HeJ mice were stimulated with BP1569. […] TLR agonists can bind to TLR1/2 or TLR2/6 heterodimers, therefore, the role of these TLRs using specific blocking antibodies to human TLR1 and TLR6 was examined.
(In general: A reporter such as luciferase makes a cellular process visible.)

Experiment [8] addresses T2, human TLR2. Description: IL-8 production by TLR2 transfected HEK 293T cells. The class given is cell-based. The settings on record: HEK 293T-TLR2, 24 h. As for the experimental part:
as §5, §6

A further experiment concerns p38 MAP kinase. Briefly: p38 phosphorylation in spleen cells (Western blot). The experiment is classed as cell-based. As to conditions: spleen cells from C3H/HeJ mice. As for the experimental part: as §5, §2
Cytokine production by TLR2 requires activation of the transcription factors NF-κB and p38 MAP kinase. […]

A further experiment has as its target T3, human TLR1 (Homo sapiens, UniProt O60603+Q15399).
T3 construct: endogenous in cells; host or cells: human PBMC
Briefly: BP1569-induced IL-6 in human PBMC with TLR1 blocking antibody. The class given is cell-based. As to conditions: 100 ng/ml, 24 h. As for the experimental part: as §5, §6

The target in a further experiment is T4, human TLR6 (Homo sapiens, UniProt Q9Y2C9).
T4 construct: endogenous in cells; host or cells: human PBMC
Briefly: BP1569-induced IL-6 in human PBMC with anti-TLR6 antibody. The class given is cell-based. The settings on record: 100 ng/ml, 24 h. As for the experimental part:
as §5, §6

The subject of experiment [9] is C3H/HeJ mice. Description: Cytokine induction in vivo by BP1569 (serum ELISA). The settings on record: 70 μg intraperitoneally, 3 h, versus PBS controls. As for the experimental part:
(§7) After 3 h serum IL-12 and IL-6 concentrations were quantified by ELISA. […] After seven days the draining lymph node was harvested and cells were stimulated with BP1569 (2 μg/ml). […] After seven days the draining lymph node was harvested and cells were stimulated with total heat killed B. pertussis 1-100×10^6/ml).
C3H/HeJ mice were treated intraperitoneally with BP1569 (70 μg) or PBS control and serum cytokines were measured by ELISA after 3h.
C3H/HeJ mice were treated intraperitoneally with BP1569 (70 μg) and serum cytokines were measured after 3 h.

Experiment [10] has as its system C3H/HeJ mice. Briefly: Antigenicity of BP1569: footpad immunization, lymph node cell re-stimulation. The class given is in vivo. As to conditions: 10 μg footpad. As to the method:
as §7
C3H/HeJ mice were injected into the footpad with BP1569 (10 μg) diluted in PBS or with PBS only. After seven days the draining lymph node was harvested and the lymph node cells were stimulated with either BP1569 (2 μg/ml) or heat killed B. pertussis pertussis (1-100×10^6/ml). After 3 days of culture, the concentration of IFN-γ in supernatants was quantified by ELISA.
The possibility that BP1569 was immunogenic in vivo and capable of inducing B. pertussis-specific immune responses was examined. C3H/HeJ mice were injected into the footpad with BP1569 (10 μg) diluted in PBS or with PBS only. After seven days the draining lymph node was harvested and the lymph node cells were stimulated with either BP1569 (2 μg/ml) or heat killed B. pertussis.

T1 sequence (Q9QUN7 25-784): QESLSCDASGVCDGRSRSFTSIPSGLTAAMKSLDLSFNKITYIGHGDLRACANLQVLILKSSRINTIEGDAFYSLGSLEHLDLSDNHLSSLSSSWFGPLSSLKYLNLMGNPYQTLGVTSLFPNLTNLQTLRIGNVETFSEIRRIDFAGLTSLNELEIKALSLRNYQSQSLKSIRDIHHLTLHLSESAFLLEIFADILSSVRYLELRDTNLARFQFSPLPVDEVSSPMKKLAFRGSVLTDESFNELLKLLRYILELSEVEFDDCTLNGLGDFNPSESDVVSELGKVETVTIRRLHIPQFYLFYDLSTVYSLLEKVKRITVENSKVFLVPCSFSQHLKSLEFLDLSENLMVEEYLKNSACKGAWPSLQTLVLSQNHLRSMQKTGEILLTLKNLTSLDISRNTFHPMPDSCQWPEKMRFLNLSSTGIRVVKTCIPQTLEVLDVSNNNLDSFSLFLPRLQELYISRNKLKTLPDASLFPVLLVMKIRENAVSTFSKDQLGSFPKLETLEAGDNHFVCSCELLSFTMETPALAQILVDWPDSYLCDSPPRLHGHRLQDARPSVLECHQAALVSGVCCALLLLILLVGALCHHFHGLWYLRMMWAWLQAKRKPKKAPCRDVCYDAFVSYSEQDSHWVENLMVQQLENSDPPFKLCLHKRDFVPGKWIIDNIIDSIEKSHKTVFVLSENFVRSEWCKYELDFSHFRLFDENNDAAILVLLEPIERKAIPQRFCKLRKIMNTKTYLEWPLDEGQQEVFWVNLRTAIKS
T1 sequence (Q9EPQ1 26-795): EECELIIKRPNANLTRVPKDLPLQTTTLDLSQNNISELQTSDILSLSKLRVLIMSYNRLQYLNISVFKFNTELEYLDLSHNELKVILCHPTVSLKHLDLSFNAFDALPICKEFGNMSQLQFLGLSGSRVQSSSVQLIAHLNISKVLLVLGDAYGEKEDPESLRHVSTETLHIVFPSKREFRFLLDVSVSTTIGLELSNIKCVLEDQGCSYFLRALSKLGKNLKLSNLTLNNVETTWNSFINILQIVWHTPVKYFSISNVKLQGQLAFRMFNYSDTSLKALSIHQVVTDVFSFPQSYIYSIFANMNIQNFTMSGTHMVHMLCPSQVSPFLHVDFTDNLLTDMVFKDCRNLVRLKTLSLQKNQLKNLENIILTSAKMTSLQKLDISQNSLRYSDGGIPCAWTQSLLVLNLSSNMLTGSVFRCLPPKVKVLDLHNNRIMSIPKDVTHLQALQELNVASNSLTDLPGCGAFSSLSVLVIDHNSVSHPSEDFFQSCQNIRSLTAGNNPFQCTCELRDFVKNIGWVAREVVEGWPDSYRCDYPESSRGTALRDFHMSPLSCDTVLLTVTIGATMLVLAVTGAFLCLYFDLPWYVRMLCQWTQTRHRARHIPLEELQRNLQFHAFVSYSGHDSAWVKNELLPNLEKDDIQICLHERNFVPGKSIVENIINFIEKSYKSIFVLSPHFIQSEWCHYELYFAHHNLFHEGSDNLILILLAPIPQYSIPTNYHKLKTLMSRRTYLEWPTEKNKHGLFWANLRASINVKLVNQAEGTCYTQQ
T2 sequence (O60603 21-784): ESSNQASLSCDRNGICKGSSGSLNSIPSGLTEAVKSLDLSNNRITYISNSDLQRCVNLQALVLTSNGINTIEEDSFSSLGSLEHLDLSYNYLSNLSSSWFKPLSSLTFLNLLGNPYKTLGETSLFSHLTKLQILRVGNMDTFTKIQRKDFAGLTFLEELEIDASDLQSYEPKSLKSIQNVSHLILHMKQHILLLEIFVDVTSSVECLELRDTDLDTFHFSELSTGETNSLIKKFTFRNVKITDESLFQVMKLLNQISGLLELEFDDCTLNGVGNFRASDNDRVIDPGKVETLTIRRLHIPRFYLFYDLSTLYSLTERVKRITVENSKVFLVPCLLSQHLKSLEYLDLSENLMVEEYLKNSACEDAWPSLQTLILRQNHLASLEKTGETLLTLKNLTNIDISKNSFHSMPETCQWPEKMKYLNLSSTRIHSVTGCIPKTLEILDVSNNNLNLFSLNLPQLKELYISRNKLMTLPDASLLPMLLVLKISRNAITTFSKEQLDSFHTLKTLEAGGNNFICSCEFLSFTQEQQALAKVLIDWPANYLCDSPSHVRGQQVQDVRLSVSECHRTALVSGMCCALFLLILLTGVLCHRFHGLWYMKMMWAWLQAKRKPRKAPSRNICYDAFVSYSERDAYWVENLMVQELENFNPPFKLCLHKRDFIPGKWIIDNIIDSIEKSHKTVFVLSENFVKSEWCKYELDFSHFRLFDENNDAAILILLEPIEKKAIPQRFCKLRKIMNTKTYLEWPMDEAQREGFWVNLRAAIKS
T2 sequence (Q15399 25-786): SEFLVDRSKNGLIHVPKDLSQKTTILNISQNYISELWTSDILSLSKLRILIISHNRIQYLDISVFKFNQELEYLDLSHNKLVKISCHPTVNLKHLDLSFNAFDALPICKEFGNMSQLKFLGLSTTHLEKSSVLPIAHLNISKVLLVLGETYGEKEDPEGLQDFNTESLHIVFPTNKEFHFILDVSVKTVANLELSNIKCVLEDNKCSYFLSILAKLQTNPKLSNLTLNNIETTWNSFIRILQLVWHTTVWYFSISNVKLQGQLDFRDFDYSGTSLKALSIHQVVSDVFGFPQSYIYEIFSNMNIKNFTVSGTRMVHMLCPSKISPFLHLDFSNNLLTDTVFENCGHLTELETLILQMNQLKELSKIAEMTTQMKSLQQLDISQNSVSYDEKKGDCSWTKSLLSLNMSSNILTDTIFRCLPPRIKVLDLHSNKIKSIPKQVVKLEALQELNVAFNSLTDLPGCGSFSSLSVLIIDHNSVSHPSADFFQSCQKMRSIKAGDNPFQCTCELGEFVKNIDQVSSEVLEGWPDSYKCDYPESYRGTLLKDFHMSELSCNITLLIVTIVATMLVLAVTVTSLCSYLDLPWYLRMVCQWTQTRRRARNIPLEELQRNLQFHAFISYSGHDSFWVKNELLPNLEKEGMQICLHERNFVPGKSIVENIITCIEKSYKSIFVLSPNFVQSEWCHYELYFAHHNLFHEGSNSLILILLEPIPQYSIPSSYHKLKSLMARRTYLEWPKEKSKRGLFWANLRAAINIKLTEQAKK
T4 sequence (O60603 21-784 partner): as the sequence (O60603 21-784) above
T4 sequence (Q9Y2C9 32-796): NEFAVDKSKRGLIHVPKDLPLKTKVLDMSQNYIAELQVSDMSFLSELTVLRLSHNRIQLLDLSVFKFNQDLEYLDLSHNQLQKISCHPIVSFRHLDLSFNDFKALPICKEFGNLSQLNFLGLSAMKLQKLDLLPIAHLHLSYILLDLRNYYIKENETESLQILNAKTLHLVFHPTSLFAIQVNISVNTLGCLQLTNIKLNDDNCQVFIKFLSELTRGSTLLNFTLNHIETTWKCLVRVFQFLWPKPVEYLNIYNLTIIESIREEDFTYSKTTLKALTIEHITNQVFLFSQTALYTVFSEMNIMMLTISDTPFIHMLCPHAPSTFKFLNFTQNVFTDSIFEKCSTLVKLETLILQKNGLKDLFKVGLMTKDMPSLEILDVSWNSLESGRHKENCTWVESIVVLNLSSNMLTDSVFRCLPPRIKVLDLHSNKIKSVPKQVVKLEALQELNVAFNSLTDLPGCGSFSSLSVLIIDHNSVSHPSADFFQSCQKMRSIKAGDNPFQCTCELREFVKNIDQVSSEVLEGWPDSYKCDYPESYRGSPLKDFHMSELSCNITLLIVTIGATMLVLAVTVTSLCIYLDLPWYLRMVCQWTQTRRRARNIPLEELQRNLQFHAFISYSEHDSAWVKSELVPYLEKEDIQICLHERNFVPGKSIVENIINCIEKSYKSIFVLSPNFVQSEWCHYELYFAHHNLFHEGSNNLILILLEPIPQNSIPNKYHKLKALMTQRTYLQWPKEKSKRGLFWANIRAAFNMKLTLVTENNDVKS
T3 sequence (Q15399 25-786): as the sequence (Q15399 25-786) above
T3 sequence (O60603 21-784): as the sequence (O60603 21-784) above

B1: BP2992: full length B. pertussis lipoprotein BP2992, ~16 kDa (protein, listed as Bordetella pertussis)
chain: NYMHSPSVVAGRARRLLAVAAVAGSVAVLAGCANPSASSGVYTYGQAQREQIVRTGTVTGVRPITIQNDKSSGVGLVAGGALGGVAGNAVGGGTGRTIATVGGVILGALAGNAIENRAGKSSGYEITVRLDNGETRVVAQEADVPISVGQRVQVISGAGPTRVTPY
With B1, the “ligand activity for TLR2” value in the experiment on TLR2 [1] is “immunologically active ligand for TLR2”. Moreover, the “maturation of dendritic cells (MHC class II, CD80, CD86)” value in experiment [2] (100 ng/ml) is given as “induces”. Besides, the “pro-inflammatory cytokine production by dendritic cells” value in [2] (50, 100 and 1000 ng/ml) was “induces”. Also, the “TLR2 dependence of pro-inflammatory cytokine production by DCs (IL-6, TNF-α)” value with TLR2 [3] is “in a TLR2 dependent manner”. The “pro-inflammatory cytokine production (TNF-α) from human PBMC” value in experiment [4] is “induces”.

B2: BP1569: full length B. pertussis lipoprotein BP1569, ~40 kDa, TLR2 agonist (protein, listed as Bordetella pertussis)
chain: MRMNKRHAGASALMALALLAGCSDVNQLLGNEESVDYKSTRRGDPLSIPPDLTQANNDPRYKAPASGTATYSQFQQQGLQQQASAGQNTNVLPERADMRVERDGDLRWLVIERPPEQLFSKVVDFWTDTGFTVSVNNPQAGIIETDWAENRAKIPESWLRQVLGSVLETAWDSGEREKFRTRVERVNGHTEIYITHNQMLEKRVGSDGGQVQWTHGKEDPGLNAAMLARLMVYLGTDVDAARKLVAQAEAAPQAPKVQSVRAEGAMLVVDESFDRAWRRVGVALDSGGFAVDDRDRSAGEYFVRYVDTDTGAQNEQPGFFSRLFSSDKKAQAPQYRIRLTGSGTQTQVTVLDANGQRDSSATAQRMLSVLKDKMV
For the molecule B2, in [5], the “IL-6 production by DC” value was “induced robust”, the “IL-12 production by DC” value was “induced robust”, the “IL-23 production by DC” value is reported as “induced robust” and the “TNF-α production by DC” value is listed as “induced robust”. Further, in the experiment with DC from C3H/HeJ mice, the “surface expression of CD80” value was “enhanced”, the “surface expression of CD86” value is “enhanced” and the “surface expression of MHC class II” value is reported as “enhanced”. In addition, in the experiment with TLR2 [6], the “BP1569-induced TNF-α production in the presence of the TLR2 blocking antibody” value is recorded as “completely abrogated”. For the same molecule, in the experiment on BMDC from C3H/HeJ mice (100 ng/ml on DC), the “effect of lipase treatment on induced IL-6 production” value is on record as “abolished”. The “effect of lipase treatment on induced IL-12p40 production” value with BMDC from C3H/HeJ mice (then DC stimulation) is “abolished”. Besides, in the experiment with human TLR2 [7], the “luciferase activity (NF-κB reporter)” value is reported as “significant increase”. In addition, the IL-8 production entry with human TLR2 [8] was “increased”. The p38 phosphorylation result in the experiment on p38 MAP kinase (15 minutes following stimulation) was “enhanced”. The “p38 phosphorylation with anti-TLR2 blocking antibody” value in the experiment with p38 MAP kinase (T2.5 2.5 μg/ml) was “inhibited”. Further, the “BP1569-induced IL-6 production with TLR1 blocking antibody” value with human TLR1 is recorded as “significantly reduced”. The “BP1569-induced IL-6 production with anti-TLR6 antibody” value with human TLR6 was “little effect”. In the experiment with C3H/HeJ mice [9], the “serum IL-6” value is “Significant concentrations” and the “serum IL-12” value was “Significant concentrations”. In addition, the “BP1569-specific IFN-γ by lymph node cells” value with C3H/HeJ mice [10] (day 7, re-stimulated with BP1569 2 μg/ml) is listed as “induced at significant levels”. The “IFN-γ upon re-stimulation with heat killed B. pertussis” value with C3H/HeJ mice [10] (day 7 lymph node cells) is recorded as “produced IFN-γ”.

Source of the values: patent US11497805B2, “Toll-like receptor 2 agonists and vaccines and uses thereof” (The Provost, Fellows, Foundation Scholars & the Other …, priority 2014, dated 2022).
